Here are results for 2 molecules from publication PMC10065799, “High-throughput profiling of sequence recognition by tyrosine kinases and SH2 domains using bacterial peptide display” (eLife, 2023).

Square brackets hold non-standard residues; d marks the D form. pY = N[C@@H](Cc1ccc(OP(=O)(O)O)cc1)C(=O)O

For this test, the target named is human c-Src SH2 domain (residues 143-250) (human, UniProt P12931-1 143-250, biotin on the Avi tag (co-expression with the biotin ligase BirA)). The experiment in a line: fluorescence polarisation; competition: unlabeled phosphopeptide serially diluted against 30 nM fluorescent peptide and 240 nM (1.5 x KD) c-Src SH2; same buffer; 25 °C; cubic binding equation. To be noted: both partners purified. On the technique in general: Polarisation of emitted light reports the rotation of a fluorescent probe.

B1: CLIP2_Y972 phosphopeptide Ac-QSDQRR(pY)SLIDRG-NH2 (peptide)
peptide: Ac-QSDQRR[pY]SLIDRG-NH2
SMILES: CC[C@H](C)[C@H](NC(=O)[C@H](CC(C)C)NC(=O)[C@H](CO)NC(=O)[C@H](Cc1ccc(OP(=O)(O)O)cc1)NC(=O)[C@H](CCCNC(=N)N)NC(=O)[C@H](CCCNC(=N)N)NC(=O)[C@H](CCC(N)=O)NC(=O)[C@H](CC(=O)O)NC(=O)[C@H](CO)NC(=O)[C@H](CCC(N)=O)NC(C)=O)C(=O)N[C@@H](CC(=O)O)C(=O)N[C@@H](CCCNC(=N)N)C(=O)NCC(N)=O
notes: source: synthetic peptide (synthesized in-house, RP-HPLC purified)
For the molecule B1, the binding result was “binds”.

B2: CLIP2_Y972_R977P phosphopeptide Ac-QSDQRR(pY)SLIDPG-NH2 (peptide)
peptide: Ac-QSDQRR[pY]SLIDPG-NH2
SMILES: CC[C@H](C)[C@H](NC(=O)[C@H](CC(C)C)NC(=O)[C@H](CO)NC(=O)[C@H](Cc1ccc(OP(=O)(O)O)cc1)NC(=O)[C@H](CCCNC(=N)N)NC(=O)[C@H](CCCNC(=N)N)NC(=O)[C@H](CCC(N)=O)NC(=O)[C@H](CC(=O)O)NC(=O)[C@H](CO)NC(=O)[C@H](CCC(N)=O)NC(C)=O)C(=O)N[C@@H](CC(=O)O)C(=O)N1CCC[C@H]1C(=O)NCC(N)=O
notes: as for B1
In the case of B2, the binding result was “binds”.
